In patent US20200308575A1 (TWIST BIOSCIENCE, published 2020):
Read-outs that look alike come from different tables or passages of the source.

Tests used:
[1] = biological target: T1, program cell death protein 1 (PD-1) (UniProt Q15116 25-167, limits assumed); assay: SPR (Carterra LSA), IgG, monovalent affinity
[2] = biological target: T1, program cell death protein 1 (PD-1); assay: cell-based or functional assay
[3] = biological target: T1, program cell death protein 1 (PD-1); assay: SPR (Carterra LSA), IgG, monovalent affinity; remark: listed apart in the source

T1 sequence (Q15116 25-167 limits assumed): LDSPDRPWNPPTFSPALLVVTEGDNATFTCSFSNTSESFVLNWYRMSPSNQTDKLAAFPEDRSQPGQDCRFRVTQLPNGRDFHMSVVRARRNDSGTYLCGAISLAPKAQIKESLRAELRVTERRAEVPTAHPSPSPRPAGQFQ

Binder | Kd [1] [nM] | Bmax (RU) (PD-1/PD-L1 blockade assay) [2] | IC50 (PD-1/PD-L1 blockade assay) [2] [nM] | Kd [3] [nM]
PD1-45 (antibody, V domains shown) VH: EVQLVESGGGLVQPGRSLRLSCAASGFTFDDYALHWVRQAPGKDLEWVSGISWNAGSQGYADSVKGRFTISRDNAKNSLYLQMNSLRAEDTALYYCVREKGPGLTGSTADYYGLDAWGQGTMVTVSS | 243 | – | – | –
PD1-1 (antibody, V domains shown, IgG in the assay) VH: QVQLVQSGAEVKKPGASVKVSCKASGYTFSHYGISWVRQAPGQGLEWMGWVSAYSGNTRYAQKLQGRVTMTTDTSTSTAYMELRSLRSDDTAVYYCARDATYSSGSGYWGQGTLVTVSS VL: SYELMQPPSVSVSPGQTARITCSGDALPTQYAYWYQQKPGQAPVLVIYQDNERPSGIPERFSGSSSGTTVTLTISGVQAEDEADYYCQSADNSITYRVFGGGTKLTVL | 4.5 | 693 | 0.434 | 4.52
PD1-8 (antibody, V domains shown, IgG in the assay) VH: QVQLVQSGAEVKKPGASVKVSCKASGYTFSHYGISWVRQAPGQGLEWMGWISPYSGNTKYAQKLQGRVTMTTDTSTSTAYMELRSLRSDDTAVYYCARDNDYSSGSGYWGQGTLVTVSS VL: SYELMQPPSVSVSPGQTARITCSGDELPKQYAYWYQQKPGQAPVLVIYKDNERASGIPERFSGSSSGTTVTLTISGVQAEDEADYYCQSADNSITYRVFGGGTKLTVL | 78.1 | 436 | 1.97 | –
PD1-7 (antibody, V domains shown, IgG in the assay) VH: QVQLVQSGAEVKKPGASVKVSCKASGYTFTHYGITWVRQAPGQGLEWMGWISAYSGSTNYAQKLQGRVTMTTDTSTSTAYMELRSLRSDDTAVYYCARDADYSIGSGYWGQGTLVTVSS VL: SYELMQPPSVSVSPGQTARITCSGDALPNQYAFWYQQKPGQAPVLVIYKDNERPSGIPERFSGSSSGTTVTLTISGVQAEDEADYYCQSADNSITYRVFGGGTKLTVL | 10.5 | 642 | 0.896 | –
PD1-2 (antibody, V domains shown, IgG in the assay) VH: QVQLVQSGAEVKKPGASVKVSCKASGYSFSNYGISWVRQAPGQGLEWMGWVSAYSGNTNYAQKLQGRVTMTTDTSTSTAYMELRSLRSDDTAVYYCARDADYASGSGYWGQGTLVTVSS VL: SYELMQPPSVSVSPGQTARITCSGDELPNQYAYWYQQKPGQAPVLVIYKDTQRPSGIPERFSGSSSGTTVTLTISGVQAEDEADYYCQSADNSITYRVFGGGTKLTVL | 9.8 | 661 | 0.848 | –
